We go through one protein from US5616559, “Papillomavirus E2 trans-activation repressors” (Biogen, Inc., dated 1997).

The series concerns the molecule itself. Description: homodimerization; UV cross-linking, yeast extract.

B1: BPV1 E2 mutant 360S, full-length form (other)
chain: METACERLHVAQETQMQLIEKSSDKLQDHILYWTAVRTENTLLYAARKKGVTVLGHCRVPHSVVCQERAKQAIEMQLSLQELSKTEFGDEPWSLLDTSWDRYMSEPKRCFKKGARVVEVEFDGNASNTNWYTVYSNLYMRTEDGWQLAKAGADGTGLYYCTMAGAGRIYYSRFGDEAARFSTTGHYSVRDQDRVYAGVSSTSSDFRDRPDGVWVASEGPEGDPAGKEAEPAQPVSSLLGSPACGPIRAGLGWVRDGPRSHPYNFPAGSGGSILRSSSTPVQGTVPVDLASRQEEEEQSPDSTEEEPVTLPRRTTNDGFHLLKAGGSCFALISGTANQVKCYRFRVKKNHRHRYENCTTTSFTVADNGAERQGQAQILITFGSPSQRQDFLKHVPLPPGMNISGFTASLDF
B1: the binding result is given as “no binding”.
